# T1: human BCMA on cells (endogenous, on multiple myeloma and lymphoma cell lines) (human, UniProt Q02223 1-184)
# T1 sequence: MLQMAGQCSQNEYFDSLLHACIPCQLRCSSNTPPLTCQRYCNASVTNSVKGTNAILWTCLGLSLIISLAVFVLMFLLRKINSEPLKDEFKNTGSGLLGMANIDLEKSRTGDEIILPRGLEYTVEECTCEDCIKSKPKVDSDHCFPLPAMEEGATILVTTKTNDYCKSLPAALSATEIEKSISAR
# Key:
# [1] = biological target: T1, human BCMA on cells (endogenous, on …); assay: cell-based or functional assay
# [2] = biological target: T1, human BCMA on cells (endogenous, on …); assay: flow cytometry on MM.1S cells, Alexa647 conjugate
# Description: Cells were then washed and fixed for 25 mins at 4° C. using a 50% solution of BD Cytofix (BD, Cat #554655) diluted in PBS. […] After gating for live cells and single cells, the mean fluorescent intensity (MFI) was determined, and MFI values were plotted in Graphpad Prism using a four-parameter logistic equation over a 10-point response curve to calculate EC₅₀s. The zero condition for each dose-response curve is also included in the analysis as a continuation of the two-fold serial dilution and is represented as the lowest dose. The signal to noise (S/N) is determined by taking the ratio of the mAb25442D-A647 MFI to the Isotype-A647 MFI. (Table 13). The mAb25442D-A647 S/N ranged from 2 to 470 and the EC₅₀ values ranged from 27 to 83 nM. No detectable binding was observed on HEK293 cells.
Binder,"MFI fold change over cells incubated in media only, U266, 18 h with 67 nM antibody, then stained with the same antibody [1]","MFI fold change over cells incubated in media only, U266, 18 h with 667 nM antibody, then stained with the same antibody [1]",EC50 [2]
"REGN5458 (bsAb25441D), anti-BCMA x anti-CD3 bispecific antibody (bispecific antibody, V domains shown, Two different heavy chains paired with a common light chain; human Fc (captured by anti-human Fc in SPR); also called bsAb25441D9; mAb25441D) VH 1: EVQLVESGGGLVQPGGSLRLSCAASGFTFSNFWMTWVRQAPGKGLEWVANMNQDGSEKYYVDSVKGRFTISRDNAKSSLYLQMNSLRAEDTAVYYCARDREYCISTSCYDDFDYWGQGTLVTVSS VH 2: EVQLVESGGGLVQPGRSLRLSCAASGFTFDDYSMHWVRQAPGKGLEWVSGISWNSGSKGYADSVKGRFTISRDNAKNSLYLQMNSLRAEDTALYYCAKYGSGYGKFYHYGLDVWGQGTTVTVSS VL: not shown",1.4 fold,2.3 fold,–
"REGN5459 (bsAb25442D), anti-BCMA x anti-CD3 bispecific antibody (bispecific antibody, V domains shown, also called mAb25442D; mAb25442D-A647) VH 1: EVQLVESGGGLVQPGGSLRLSCAASGFTFSNFWMTWVRQAPGKGLEWVANMNQDGSEKYYVDSVKGRFTISRDNAKSSLYLQMNSLRAEDTAVYYCARDREYCISTSCYDDFDYWGQGTLVTVSS VH 2: EVQLVESGGGLVQPGRSLRLSCAASGFTFDDYSMHWVRQAPGKGLEWVSGISWNSGSIGYADSVKGRFTISRDNAKNSLYLQMNSLRAEDTALYYCAKYGSGYGKFYYYGMDVWGQGTTVTVSS VL: not shown",–,–,83 nM

# Reference: patent US20220306758A1 (Regeneron, published 2022)
